The target in experiment [1] is human CD83, cell surface, on lymphoma cells (human) (UniProt Q01151). In words: flow cytometry, HB15a-FITC on HDLM2 cells, gate placed right of the grey isotype control histogram.
The target is the same in experiment [2]. In words: flow cytometry, HB15a-FITC on KM-H2 cells, gate placed right of the grey isotype control histogram. (In general: In flow cytometry, cells or beads pass a laser one at a time.)
Experiment [3] has the same target. In words: flow cytometry, HB15a-FITC on L428 cells, gate placed right of the grey isotype control histogram.
For experiment [4] the target is unchanged. In words: flow cytometry, HB15e-FITC on KM-H2 cells, gate placed right of the grey isotype control histogram.
Experiment [5] has the same target. In words: flow cytometry, HB15e-FITC on HDLM2 cells, gate placed right of the grey isotype control histogram.
For experiment [6] the target is unchanged. The experiment in a line: flow cytometry, HB15e-FITC on L428 cells, gate placed right of the grey isotype control histogram.

Chain of UniProt Q01151 (Q01151 20-205): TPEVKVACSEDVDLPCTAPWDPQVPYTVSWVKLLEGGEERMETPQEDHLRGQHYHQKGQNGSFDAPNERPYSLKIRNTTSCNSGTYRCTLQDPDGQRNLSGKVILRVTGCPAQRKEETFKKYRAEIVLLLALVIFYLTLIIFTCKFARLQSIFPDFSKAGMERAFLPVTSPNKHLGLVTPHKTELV

Take “HB15a, mouse anti-human CD83 monoclonal antibody (Beckman and Coulter)”: the positive gate (percent of cells in the gate) in experiment [1] turned out to be 14.7; in experiment [2], 99.5; in experiment [3], 27.2.
Consider “HB15e, mouse anti-human CD83 monoclonal antibody (BD Biosciences)”, for which the figures for the positive gate (percent of cells in the gate) in experiment [4], in experiment [5] and in experiment [6] were 99, 32.5 and 60, respectively.

(Values after patent publication US20200277396A1.)
